Data as given in the nanobody polyreactivity screen of Harvey et al. (2022).

Experiment: yeast display, Sf9 membrane polyspecificity reagent, FACS + sequencing; frameworks hold sequencing errors
Procedure, shortened: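 Galactose induction of a Saccharomyces cerevisiae BJ5465 synthetic nanobody display library ran 36–48 hours. The cells were then stained for 1 hour at 4 °C with 10% biotinylated, detergent-solubilized Sf9 membrane reagent, pulled down on streptavidin microbeads and FACS-sorted into low and high (top ~1%) gates on expression and reagent-binding fluorescence. Labels for polyreactivity follow the gate of origin.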

| Sequence | polyreactivity (PSR sort gate) |
| --- | --- |
| QVQLVESGGGLVQAGGSLRLTCAASGLILVPNTMGWYRQAPGTERELVAAISYSGGGTYYADSVKGRFTISRDNAKNTVYLQMNSLKPEDTAVYYCAAYVKRESAPYGYWGQGTQVTVSS | low polyreactivity |
| QVQLVESGGGLVQAGGSLRLSCAASGSTFSIYARGWYRPAPGKERELVAAISYSDGTTYSADSVKGRFTISRDNAKNTDYVQMNSLKPEDTAVYYCATQQIWTSWYDRFDYWGQGTQVTVSS | low polyreactivity |
| QVQLVESGGGLVQAGGSLRLSCAASVSTFFRYAKRWYRQAPGKERELVAAISKRGGSTSYADSVKGRFTISRDNAKNTVYLQMNSLKPEDTAVYYCATVYWLFARYDYWGQGTQVTVSS | high polyreactivity |
| QVQHVESRGGLVQAGGSLRLSCAASGLILSGYTMGWYRPAPGKERELVAAISRSGGSTYYADSVKGRFTISRDNAKNTVYLQMNSLKPEDTAVYYCAKVPIYRYGVWAMNYWGQGTQVTVSS | high polyreactivity |
| QVQLVESGGGLVQAGGSLRLSCDASGTLSPYAMGWYRQAPGKERELVAVITSNTGRTYADSVKGRFTISRYNSKNTVYLQKNTLNPQDTAFFYCYWGQGTQVTVTS | low polyreactivity |
| QVQLVESGGGLVQAGGSLRLSCAASGSIFTRYAMGWYRQAPGKDRELDADIRWGGGDTYYADSVKGRFTNSRDNAKNTVYLQMNSLTPEDTAVYYCNADHTFIKYYPDWGDYGRDYDYWGQGTQVTVSS | low polyreactivity |
| QVQLVESGGGLVQAGGSLRLSCAASGSTFLHSAMGWYRQAPGKEREFTYYADSVKGRFTISRDNAKNTVYLQMHSLKPEDTAGYYCNAGPYWSPYGDDVGYWGQGTQVTVSS | low polyreactivity |
| QVQLVESGGGLVQAGGSLRLSCAASGSTFDPYAMGCYRQAAGKEREFVAYIDSSVGSTFYADSVKGRFTISRDNAKNTVYLQMNSLKPEDTAVYYCAAASRVAKGRWRLYDYWGQGTQVTVSS | high polyreactivity |
| QGQLVESGGGLVQAGGSLRLSCAASGSIFVLNAMGWYRQAPGKERELVAAISGGSTNYADSVKGRFTISRDNAKNTVYLQMNSLKPEDTAVYYCAARARRRYYYWGQGTQVTVSS | high polyreactivity |
| QVQLVESGGGLVQAGGSLRLSCAASGSTFYPNAMGWYRQAPGKERELVAAISRGTRTKYADSVKGRFTISRDNAKNTVYLQMNSLKPEDTAVYYCAKRYYGSPQLRYYYWGQGTQVTVSS | high polyreactivity |
| QVQLVESGGGLVQAGGSLRLSCAASGRIVNFYAMGWYRQAPGKEREFVAAISWSGGSTSYADSVKGRFTISRDTAKKTDYLQMNSLKPEDTAVSYCAVRWSSRSRRYNYWGQGTQVTVSS | high polyreactivity |
| QVQLVESGGRLVQAGGSLRLTCAASGSTIYQYVMRWYRQAPGKERELVAVITWSGGRTYYADSVKGRFTISRDNAKNTVYLQMNSLKPEDTAGYYCAADPLSGYDYWGQGTHVTVSS | low polyreactivity |
| LVQLVESGGGLVQAGGSLRLSCAASGFIFFGEYVMGWYRQAPGKEREFVAAITDSDGSTYYADSVKGSFTISRDNGKNTVYLQMISLKPEDTAVYYCAAERVYSDMDYWGQGTQVTVSS | low polyreactivity |
| QVQLVESGGGLVQAGGSLRLSCDASGRTYTGYAIGWYRQAPGKERELVAAISKSGGRTYYADSVKGRFTISRDYAKNTVYLQMNSLKPEDTAVYYCAKVETFLQIAYRRGYDSWGQGTQVTVSS | low polyreactivity |
| QVQLVESGGGLVQAGGSLRLSCAASGRTFFYYAMGSYRQAPGKERELVATITKRGGSTYYADSVKGRFTISRDNAKNTVYLQMNSLKPEDTAVYYCNAAGNPVSRYHYDYWGQGTQVTVSS | high polyreactivity |
| QVQLVESGGGLVQAGGSLRLSCDASGRIFRVYAMGWYRPAPGKERELFAAISWSGGRTYYADSVKGRFTISRDNAKNTVYLQMNSLKPEDTAVYYCAAERGGPTYYSGGDYDYWGQGTQVTVSS | high polyreactivity |
| QVQLVESGGGLLQAGGSLRLSCAASGSNFDRYGRGWYRQAPGTERELVADITSDGSTNYADSVKGRFTISRDNAKNTVYLQMNSLKPEDTAVYYCAVSYTAYSVGYDYWGQGTQVTVSS | low polyreactivity |
| QVQLVESGGGLVQAGGSLRLSCAASGSTFGRYAMGWYRQAPGKERELVAAISRGTTTNYADSVKGRFTIARDNAKNTVYLQMNSLKPEDTAVYYCAADQPSKRYYSWGQGTQVTVSS | low polyreactivity |
| QVQLVEAGGGLVQAGGSLRLSCASSGSIITVYDMGWYRQPPGKERELVATITGSDGRTDYADSVKGRFTISRDNAKNTVYLQMNSLKPEDTAVYYCAAHVFQWKNRQSLLFDQGYYWGQGTQVTVSS | low polyreactivity |
| QVQLVDSGGGLVQAGGSLRLICAASGRSFYNYAMGRYSEAPGKERELVAAIAGSGGSTYYADSEKGRVTISRDNAKNTGYLQMNSLKPEDTAVDYCSTSGPQYYSRNFDDWGQGTQVTVSS | low polyreactivity |
| QVQLVESGGGLVQAGGSLRLSCAASGSTFNRNAMGWYRQAPGKERELVADISRGGRTYYSDSVKGRFTITRDNAKNTVYLQMNSLKPEDTAVFYCATVVSRGKQPFDMDYWGQGTQVTVSS | low polyreactivity |
| QVQLVESGGGLVQAGGSLRLSCAASGSIFKQNDMGWYRHAPGKERELVAAITYTGGSTYYADSVKGRFTISRDNAKNTVYLQMNSLKPEDTAVYYCAARITSPRARSRGFYYWGQGTQVTVSS | high polyreactivity |

| Sequence | polyreactivity (PSR sort gate) |
| --- | --- |
| QVQLVESGGGLVQAGGSLRLSCAASGRIFVKYVMGWYRQAPGKERELVAAITYTGGTYYADSVKGRFTISRDTAKNTVYLQMNSLKPEETAVYYCAADYQGSYYSGSYQTWTEYYYWGQGTQVTVSS | high polyreactivity |
| QVQLVESGGGLVQAGGSLRLSCAASGRIFWHNTMGWYRQAPGKERELVATITGGDGNTYYADSVKGRFTISRDNAKNTVYLQMNSLKPEDNAVYYCAKAIVSYDYGRYGKWHEYWGQGTQVTVSS | low polyreactivity |
| QVQLVESGGGLVQAGGSLRLSCAASGYTVRFNAMGWYRQAPGKEREFVAAIDFGGAGTYYADSVKGRFTISRDNAKNTVYLQMNSLKPEDTAVYYCNARDGVTTEFDYWGQGTQVTVSS | low polyreactivity |
| QVQLVESVGGLVQAGCSLRLSCAASGSIIRTNTMGWYRQAPGKEREFVAAISRSGGSTYYADSVKGRFTISRDNAKNTVYLQMNSLKPEDTAGYYCNARWGLGSYGYWGQGTQVTVSS | high polyreactivity |
| QVQRVDSGGGLVQAGGSLRLSCAASGRILRDYDRGWYRQAPGKDRELVAAINWSDGSTYYADSVKGRFTISRDNAKNTVYLQMNSLKPEDTAVYYCAASRWRPLERGTTWLHDYWGQGTQVTVSS | low polyreactivity |
| QVQLVESGGGLVQAGGSLRLSCAASGRIFKVYAMGWYRQAPGKERELVASIRWNTGSTYYADSVKGRFTISRDNAKNTVYLQMNSLKPEDTAVYYCNARGYYQGRYGYWGQGTQVTVSS | high polyreactivity |
| QVQLVESGGGLVQAGGSLRLSCAASGRTFKYNAMGWYRQAPGKERELVAVIRYSGGTTYYADSVKGRVTISRDNAKNTVYLQMNSLKPEDTAVYYCAADSWSRSVNYYYWGQGTQVTVSS | low polyreactivity |
| QVQLVESGGGLVQAGGSLRLSCAASGSTFSLYAMGWYRQSPGKETELVASITWGGGSTYADSVKRLFTISRDNAKNTVYLQMNSLKPEDPAVYYCARKYRYRVLYDFAYDHWGQGTEVTVSS | low polyreactivity |
| QVQLVESGGGLVQAGGSLRLSCAASGSTFRYYAMGWYRQAPGKERELVAAISKSGGRTYYADSVKGRFTISRDNAKNTVYLEMNSLKPEDTAVYYCAADCVARYQKGQYDYWGQGTQVTVSS | high polyreactivity |
| QVQHVESGGGLVQAGGSLRLSCAASGRIFTFYTMGWYRQAPGKERELVAAINSGGSTYYADSVKGRFTISRDNAKNTVYLQMNSLIQEDTAVYYCNARVYPLWFRRGYDYWGQGTQVTVSS | high polyreactivity |
| QVQLVESGGGLVQAGGSLRLSCAASGSTFYPYAMGWYRQAPGKERELVAAISSSGGSTYYADSVKGRFTISRDNAKNTVYLQMNSLKPEDTAVYYCNADVHSQYDYWGQGTQVTVSS | low polyreactivity |
| QVQLVESGGGLVQAGGSLRLSCAASGSMFYYYAMGWYRQPPGKERELVAAISSGGVGSTTYADSVKGRFTISRDNAKNTVYLQMNSLKPEDTAVYYCNADRPGYFYFYFNYWGQGTQVTVSS | high polyreactivity |
| QVQLVESGGGLVQAGGSLRLSCAASGIIFGRNAMGWYRQAPGKERELVAAIRWSGGSTYYADSVKGRFTISRDNAKNTVYLQMNSLKPEDTAVYYCAKRYSYWSGVKYGYWGQGTQVTVSS | high polyreactivity |
| QVQLVESVGGLVQAGGSLRLSCDATGNTFRIYAMGWYIHAPGKERQLVAAISQSGGSTYYADSVKGRFTISRDNAKNTVYLQMHSLKPEDTAVYYCNRRFAPFWGRDGYWGQGTQVTVSS | high polyreactivity |
| QVQLVESGGGLVQAGGSLRLSCAASGRIFTVFGMGWYRQAPGKERELVAAISWSGGGTYYADSVKGRFTISRDNAKNTVYLQMNSLKPEDTAVYYCNAVRQYTWSLVFFSSDYDYWGQGTQVTVSS | low polyreactivity |
| QVQLVESGGGLVQAGGSLRLSCAASGSTFQWYTMGWYRQAPGKERELVAAITWSGASTYYADSVKGRFTISRDNAKNTVYLQMNSLKPDYTAVYYCAADWRRGSGFYYWGQGTQVTVSS | high polyreactivity |
| QVQLVESGGGLVQAGGSLRLSCAASGFTFYGYAMGWYRQAPGKERELVASINRSGGTTYYADSVKGRFTISRDNAKNTVYLQMNSLKPEDTAVYYCAASYVYRFTKYYYWGQGTQVTVSS | high polyreactivity |
| QVQLVETGGGIVQAVGSLRLSCAASGSTFGWNAMGWNRQAPGKERELVAVISSDGRTYYADSVKGRFTISRDNAKNTVYLQMISLKPEDTAVYYCAKRAWGFGGYDYWGQGTQVTVSS | low polyreactivity |
| QVQLVESGGGLVQAGGSLRLSCAASGGIFSAYSMGWYRKAPGKERELVASITTDGGITYYADSVKGRFTISRDNAKNTVYLQMNSLKPEDTAVYYCAVLQYYYPYYYWGQGTQVTVSS | low polyreactivity |
| QVQLVESGGGLVQAGGSLRLSCAASGRIFIAYMGWYRQAPGKERELVAAIDSGASTYYADSVKGRFTISRDNAKNTVYLQMNSLKPEDTAVYYCAADVVYDYGGMDYWGQGTQVTVSS | low polyreactivity |
| QVQLVESGGGLVQAGGRLRLSCAASGRTCGYYTMGWYRQAPGKERELVATIRWSGGSTYADSVKGRFTISRDNAKNTVYLQMNSLKPEDTAVYYCAARNRIKWGQGTQVTVSS | high polyreactivity |
